We go through 1 substance from article PMC9364715.

In the assay the target is Ad5 hexon with DogTag inserted at HVR5, on Ad-DogTag virions (human adenovirus 5 (Ad5)) (UniProt P04133). As to the kind of experiment: SDS-PAGE gel shift.

Turning to “DogCatcher fused to SARS-CoV-2 spike receptor-binding domain (DogCatcher-RBD) (from UniProt P0DTC2 319-532) (designed binder)”, the percent of hexon covalently coupled (% of hexon monomers) came to 57.
